Earlier results on one substance are cited in publication PMC3384300.

The test system of the data set is MS2 coat protein (bacteriophage MS2?).

The term Kd denotes the equilibrium constant for the complex coming apart. natural MS2 coat protein aptamer: the Kd was 0.02 nM.
